According to the supplement of paper PMC5998384:

Key:
HeLa Kyoto [1] = experiment: melting temperature (median over replicates), in situ; higher = more thermally stable
HeLa Kyoto [2] = experiment: solubility change mitosis vs G1/S (difference of NP-40 vs SDS log2 ratios) (log2 ratio difference); higher = more soluble in mitosis
HeLa Kyoto [3] = experiment: solubility in G1/S (NP-40 vs SDS abundance) (log2 ratio); higher = more soluble; conditions: cell cycle stage: G1/S
HeLa Kyoto [4] = experiment: thermal stability score vs G1/S (z-score of summed log2 fold changes over temperatures); higher = more thermally stable than in G1/S
[5] = cell cycle stage: early G1 (4.5 h after nocodazole release)
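Throughout, for melting temperature (median over replicates), in situ: HeLa Kyoto cells synchronized by double thymidine or nocodazole block, proteins quantified by TMT10plex mass spectrometry, three independent biological replicates.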
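Throughout, for solubility change mitosis vs G1/S (difference of NP-40 vs SDS log2 ratios): synchronized HeLa Kyoto cells (double thymidine block for G1/S, nocodazole release for mitosis), protein amounts in NP-40 versus SDS lysates quantified by mass spectrometry, three biological replicates.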
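Throughout, for solubility in G1/S (NP-40 vs SDS abundance): HeLa Kyoto cells arrested at G1/S by double thymidine block, proteins quantified by TMT10plex mass spectrometry in mild NP-40 versus SDS extracts, three biological replicates.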
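Throughout, for thermal stability score vs G1/S (z-score of summed log2 fold changes over temperatures): synchronized HeLa Kyoto cells, proteins quantified by TMT10plex mass spectrometry, three biological replicates, mitosis taken 0.5 h after nocodazole release, G1/S directly after double thymidine block.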

Row | Sequence | melting temperature (HeLa Kyoto [1]; cell cycle stage: G1/S) | melting temperature (HeLa Kyoto [1]; cell cycle stage: mitosis) | solubility change mitosis (log2) (HeLa Kyoto [2]) | solubility in G1/S (log2) (HeLa Kyoto [3]) | thermal stability score (HeLa Kyoto [4]; [5]) | thermal stability score (HeLa Kyoto [4]; cell cycle stage: mitosis)
1 | MSSNSFPYNEQSGGGEATELGQEATSTISPSGAFGLFSSDLKKNEDLKQMLESNKDSAKLDAMKRIVGMIAKGKNASELFPAVVKNVASKNIEIKKLVYVYLVRYAEEQQDLALLSISTFQRALKDPNQLIRASALRVLSSIRVPIIVPIMMLAIKEASADLSPYVRKNAAHAIQKLYSLDPEQKEMLIEVIEKLLKDKSTLVAGSVVMAFEEVCPDRIDLIHKNYRKLCNLLVDVEEWGQVVIIHMLTRYARTQFVSPWKEGDELEDNGKNFYESDDDQKEKTDKKKKPYTMDPDHRLLIRNTKPLLQSRNAAVVMAVAQLYWHISPKSEAGIISKSLVRLLRSNREVQYIVLQNIATMSIQRKGMFEPYLKSFYVRSTDPTMIKTLKLEILTNLANEANISTLLREFQTYVKSQDKQFAAATIQTIGRCATNILEVTDTCLNGLVCLLSNRDEIVVAESVVVIKKLLQMQPAQHGEIIKHMAKLLDSITVPVARASILWLIGENCERVPKIAPDVLRKMAKSFTSEDDLVKLQILNLGAKLYLTNSKQTKLLTQYILNLGKYDQNYDIRDRTRFIRQLIVPNVKSGALSKYAKKIFLAQKPAPLLESPFKDRDHFQLGTLSHTLNIKATGYLELSNWPEVAPDPSVRNVEVIELAKEWTPAGKAKQENSAKKFYSESEEEEDSSDSSSDSESESGSESGEQGESGEEGDSNEDSSEDSSSEQDSESGRESGLENKRTAKRNSKAKGKSDSEDGEKENEKSKTSDSSNDESSSIEDSSSDSESESEPESESESRRVTKEKEKKTKQDRTPLTKDVSLLDLDDFNPVSTPVALPTPALSPSLMADLEGLHLSTSSSVISVSTPAFVPTKTHVLLHRMSGKGLAAHYFFPRQPCIFGDKMVSIQITLNNTTDRKIENIHIGEKKLPIGMKMHVFNPIDSLEPEGSITVSMGIDFCDSTQTASFQLCTKDDCFNVNIQPPVGELLLPVAMSEKDFKKEQGVLTGMNETSAVIIAAPQNFTPSVIFQKVVNVANVGAVPSGQDNIHRFAAKTVHSGSLMLVTVELKEGSTAQLIINTEKTVIGSVLLRELKPVLSQG [AP3B1] | 50.6 °C | 50 °C | -0.0973 | -0.0793 | -0.704 | -0.939
2 | MSSRKLSGPKGRRLSIHVVTWNVASAAPPLDLSDLLQLNNRNLNLDIYVIGLQELNSGIISLLSDAAFNDSWSSFLMDVLSPLSFIKVSHVRMQGILLLVFAKYQHLPYIQILSTKSTPTGLFGYWGNKGGVNICLKLYGYYVSIINCHLPPHISNNYQRLEHFDRILEMQNCEGRDIPNILDHDLIIWFGDMNFRIEDFGLHFVRESIKNRCYGGLWEKDQLSIAKKHDPLLREFQEGRLLFPPTYKFDRNSNDYDTSEKKRKPAWTDRILWRLKRQPCAGPDTPIPPASHFSLSLRGYSSHMTYGISDHKPVSGTFDLELKPLVSAPLIVLMPEDLWTVENDMMVSYSSTSDFPSSPWDWIGLYKVGLRDVNDYVSYAWVGDSKVSCSDNLNQVYIDISNIPTTEDEFLLCYYSNSLRSVVGISRPFQIPPGSLREDPLGEAQPQI [INPP5K] | – | 51.8 °C | -0.0846 | -0.384 | -0.0552 | 0.149
3 | MSSRKSKSNSLIHTECLSQVQRILRERFCRQSPHSNLFGVQVQYKHLSELLKRTALHGESNSVLIIGPRGSGKTMLINHALKELMEIEEVSENVLQVHLNGLLQINDKIALKEITRQLNLENVVGDKVFGSFAENLSFLLEALKKGDRTSSCPVIFILDEFDLFAHHKNQTLLYNLFDISQSAQTPIAVIGLTCRLDILELLEKRVKSRFSHRQIHLMNSFGFPQYVKIFKEQLSLPAEFPDKVFAEKWNENVQYLSEDRSVQEVLQKHFNISKNLRSLHMLLMLALNRVTASHPFMTAVDLMEASQLCSMDSKANIVHGLSVLEICLIIAMKHLNDIYEEEPFNFQMVYNEFQKFVQRKAHSVYNFEKPVVMKAFEHLQQLELIKPMERTSGNSQREYQLMKLLLDNTQIMNALQKYPNCPTDVRQWATSSLSWL [ORC4] | 48.8 °C | 49.6 °C | -0.248 | 0.194 | 1.97 | 2.38
4 | MSSSHFASRHRKDISTEMIRTKIAHRKSLSQKENRHKEYERNRHFGLKDVNIPTLEGRILVELDETSQGLVPEKTNVKPRAMKTILGDQRKQMLQKYKEEKQLQKLKEQREKAKRGIFKVGRYRPDMPCFLLSNQNAVKAEPKKAIPSSVRITRSKAKDQMEQTKIDNESDVRAIRPGPRQTSEKKVSDKEKKVVQPVMPTSLRMTRSATQAAKQVPRTVSSTTARKPVTRAANENEPEGKVPSKGRPAKNVETKPDKGISCKVDSEENTLNSQTNATSGMNPDGVLSKMENLPEINTAKIKGKNSFAPKDFMFQPLDGLKTYQVTPMTPRSANAFLTPSYTWTPLKTEVDESQATKEILAQKCKTYSTKTIQQDSNKLPCPLGPLTVWHEEHVLNKNEATTKNLNGLPIKEVPSLERNEGRIAQPHHGVPYFRNILQSETEKLTSHCFEWDRKLELDIPDDAKDLIRTAVGQTRLLMKERFKQFEGLVDDCEYKRGIKETTCTDLDGFWDMVSFQIEDVIHKFNNLIKLEESGWQVNNNMNHNMNKNVFRKKVVSGIASKPKQDDAGRIAARNRLAAIKNAMRERIRQEECAETAVSVIPKEVDKIVFDAGFFRVESPVKLFSGLSVSSEGPSQRLGTPKSVNKAVSQSRNEMGIPQQTTSPENAGPQNTKSEHVKKTLFLSIPESRSSIEDAQCPGLPDLIEENHVVNKTDLKVDCLSSERMSLPLLAGGVADDINTNKKEGISDVVEGMELNSSITSQDVLMSSPEKNTASQNSILEEGETKISQSELFDNKSLTTECHLLDSPGLNCSNPFTQLERRHQEHARHISFGGNLITFSPLQPGEF [DLGAP5] | 49.6 °C | 49.5 °C | -0.122 | 0.097 | 0.319 | 1.63
5 | MSSSPWEPATLRRVFVVGVGMTKFVKPGAENSRDYPDLAEEAGKKALADAQIPYSAVDQACVGYVFGDSTCGQRAIYHSLGMTGIPIINVNNNCATGSTALFMARQLIQGGVAECVLALGFEKMSKGSLGIKFSDRTIPTDKHVDLLINKYGLSAHPVAPQMFGYAGKEHMEKYGTKIEHFAKIGWKNHKHSVNNPYSQFQDEYSLDEVMASKEVFDFLTILQCCPTSDGAAAAILASEAFVQKYGLQSKAVEILAQEMMTDLPSSFEEKSIIKMVGFDMSKEAARKCYEKSGLTPNDIDVIELHDCFSTNELLTYEALGLCPEGQGATLVDRGDNTYGGKWVINPSGGLISKGHPLGATGLAQCAELCWQLRGEAGKRQVPGAKVALQHNLGIGGAVVVTLYKMGFPEAASSFRTHQIEAVPTSSASDGFKANLVFKEIEKKLEEEGEQFVKKIGGIFAFKVKDGPGGKEATWVVDVKNGKGSVLPNSDKKADCTITMADSDFLALMTGKMNPQSAFFQGKLKITGNMGLAMKLQNLQLQPGNAKL [SCP2] | 54.5 °C | 54.4 °C | 0.135 | 0.587 | -1.44 | -2.06
6 | MSSVQQQPPPPRRVTNVGSLLLTPQENESLFTFLGKKCVTMSSAVVQLYAADRNCMWSKKCSGVACLVKDNPQRSYFLRIFDIKDGKLLWEQELYNNFVYNSPRGYFHTFAGDTCQVALNFANEEEAKKFRKAVTDLLGRRQRKSEKRRDPPNGPNLPMATVDIKNPEITTNRFYGPQVNNISHTKEKKKGKAKKKRLTKADIGTPSNFQHIGHVGWDPNTGFDLNNLDPELKNLFDMCGISEAQLKDRETSKVIYDFIEKTGGVEAVKNELRRQAPPPPPPSRGGPPPPPPPPHNSGPPPPPARGRGAPPPPPSRAPTAAPPPPPPSRPSVAVPPPPPNRMYPPPPPALPSSAPSGPPPPPPSVLGVGPVAPPPPPPPPPPPGPPPPPGLPSDGDHQVPTTAGNKAALLDQIREGAQLKKVEQNSRPVSCSGRDALLDQIRQGIQLKSVADGQESTPPTPAPTSGIVGALMEVMQKRSKAIHSSDEDEDEDDEEDFEDDDEWED [WASL] | 50.7 °C | 51.3 °C | -0.121 | 0.303 | 0.0343 | 1.24
7 | MSTAAVPELKQISRVEAMRLGPGWSHSCHAMLYAANPGQLFGRIPMRFSVLMQMRFDGLLGFPGGFVDRRFWSLEDGLNRVLGLGLGCLRLTEADYLSSHLTEGPHRVVAHLYARQLTLEQLHAVEISAVHSRDHGLEVLGLVRVPLYTQKDRVGGFPNFLSNAFVSTAKCQLLFALKVLNMMPEEKLVEALAAATEKQKKALEKLLPASS [NUDT16L1] | 52 °C | 52.3 °C | 0.104 | -0.521 | -0.0688 | -2.32
8 | MSTEGGFGGTSSSDAQQSLQSFWPRVMEEIRNLTVKDFRVQELPLARIKKIMKLDEDVKMISAEAPVLFAKAAQIFITELTLRAWIHTEDNKRRTLQRNDIAMAITKFDQFDFLIDIVPRDELKPPKRQEEVRQSVTPAEPVQYYFTLAQQPTAVQVQGQQQGQQTTSSTTTIQPGQIIIAQPQQGQTTPVTMQVGEGQQVQIVQAQPQGQAQQAQSGTGQTMQVMQQIITNTGEIQQIPVQLNAGQLQYIRLAQPVSGTQVVQGQIQTLATNAQQGQRNASQGKPRRCLKETLQITQTEVQQGQQQFSQFTDGQRNSVQQARVSELTGEAEPREVKATGNSTPCTSSLPTTHPPSHRAGASCVCCSQPQQSSTSPPPSDALQWVVVEVSGTPNQLETHRELHAPLPGMTSLSPLHPSQQLYQIQQVTMPAGQDLAQPMFIQSANQPSDGQAPQVTGD [NFYC] | 54.7 °C | 54.3 °C | -0.174 | 0.266 | -0.186 | -0.549
9 | MSTGGDFGNPLRKFKLVFLGEQSVGKTSLITRFMYDSFDNTYQATIGIDFLSKTMYLEDRTVRLQLWDTAGQERFRSLIPSYIRDSTVAVVVYDITNVNSFQQTTKWIDDVRTERGSDVIIMLVGNKTDLADKRQVSIEEGERKAKELNVMFIETSAKAGYNVKQLFRRVAAALPGMESTQDRSREDMIDIKLEKPQEQPVSEGGCSC [RAB6A] | 56.5 °C | 57.1 °C | -0.0808 | -0.0491 | -2.97 | -6.05
10 | MSTKQITCRYFMHGVCREGSQCLFSHDLANSKPSTICKYYQKGYCAYGTRCRYDHTRPSAAAGGAVGTMAHSVPSPAFHSPHPPSEVTASIVKTNSHEPGKREKRTLVLRDRNLSGMAERKTQPSMVSNPGSCSDPQPSPEMKPHSYLDAIRSGLDDVEASSSYSNEQQLCPYAAAGECRFGDACVYLHGEVCEICRLQVLHPFDPEQRKAHEKICMLTFEHEMEKAFAFQASQDKVCSICMEVILEKASASERRFGILSNCNHTYCLSCIRQWRCAKQFENPIIKSCPECRVISEFVIPSVYWVEDQNKKNELIEAFKQGMGKKACKYFEQGKGTCPFGSKCLYRHAYPDGRLAEPEKPRKQLSSQGTVRFFNSVRLWDFIENRESRHVPNNEDVDMTELGDLFMHLSGVESSEP [MKRN2] | 46.5 °C | 48.6 °C | -0.033 | 0.161 | 0.686 | 1.44
11 | MSTSWSDRLQNAADMPANMDKHALKKYRREAYHRVFVNRSLAMEKIKCFGFDMDYTLAVYKSPEYESLGFELTVERLVSIGYPQELLSFAYDSTFPTRGLVFDTLYGNLLKVDAYGNLLVCAHGFNFIRGPETREQYPNKFIQRDDTERFYILNTLFNLPETYLLACLVDFFTNCPRYTSCETGFKDGDLFMSYRSMFQDVRDAVDWVHYKGSLKEKTVENLEKYVVKDGKLPLLLSRMKEVGKVFLATNSDYKYTDKIMTYLFDFPHGPKPGSSHRPWQSYFDLILVDARKPLFFGEGTVLRQVDTKTGKLKIGTYTGPLQHGIVYSGGSSDTICDLLGAKGKDILYIGDHIFGDILKSKKRQGWRTFLVIPELAQELHVWTDKSSLFEELQSLDIFLAELYKHLDSSSNERPDISSIQRRIKKVTHDMDMCYGMMGSLFRSGSRQTLFASQVMRYADLYAASFINLLYYPFSYLFRAAHVLMPHESTVEHTHVDINEMESPLATRNRTSVDFKDTDYKRHQLTRSISEIKPPNLFPLAPQEITHCHDEDDDEEEEEEEE [NT5C2] | 56.5 °C | 56.3 °C | -0.133 | -0.096 | -0.51 | -1.23
